Test results reported in patent US12329806B2, “Compound for modulating rlr, tlr, oas and/or oncostatin m pathways, use thereof for preparing a medicine, composition, method for modulating said pathways and method of treatment” (Instituto Butantan, priority 2018, dated 2025).

System: Equine melanoma tumors
Experiment: RNA-Seq transcriptomic analysis (DEGs, EdgeR) of treated equine melanoma tumors excised 6 h and 12 h after injection
Format: in vivo, Equus caballus
Procedure: Equine melanoma tumors were used in experiments with the administration of the compound of the invention, for transcriptomic analysis at different points in time. This translational experiment was carried out at Sao Joaquim Farm (SP) and the samples were transported to the Instituto Butantan, in the city of Sao Paulo. The experiment was designed with non-treated control samples at 0 h (PBS) and the treated tumors were excised 6 h and 12 h after the injection of 1 mg of polypeptide per kg of tumor. For each time point, two tumors were removed from three different animals, producing six tumors per time point. All 18 cDNA libraries were prepared following Illumina's TruSeq® RNA Preparation Kit Kits v2 protocol, and then sequenced using HiSeq 1500 Illumina technology, generating 2×100 bp chain-specific paired readings. The raw sequencing readings had the contaminants removed with bowtie2 2.2.5, and then trimmomatic was used for quality control of the sequences, to cut and remove readings with regions of low complexity and enriched with homopolymers, poly-A/T/N tails, low quality adapter strings and bases, with the fastq-mcf 1.04.662 software. The readings were filtered if more than 90% of the readings correspond to regions of homopolymer or of low complexity. Subsequently, cut if the average quality score was less than 25 in a window size equal to 15. After cutting, all readings less than 40 bp were discarded.
Total RNA was isolated from cells grown with Trizol (Ambion, Life Technologies) and purified with a Mini RNAspin kit (GE Healthcare) according to the manufacturer's instructions, with prolonged treatment with DNase I for 1 h.
RNA quality was assessed with an Agilent 2100 Bioanalyzer RNA Pico assay. RNA was quantified using the Rib-Green Quant-iT and RNA reagent kit (Invitrogen, Life Technologies). The messenger RNA (mRNA) was isolated and used to prepare the complementary DNA (cDNA) libraries following the instructions of the TruSeq RNA Sample Prep Kit V2 (Illumina, San Diego, Calif.). Briefly, the mRNA was isolated with oligo-dT and purified. Then, the mRNA was fragmented by heating to 94° C. (4 min) in fragmentation buffer. The double-stranded cDNA was synthesized, repaired at the end and tail A. The sequencing adapters were then attached to the cDNA fragments, according to the manufacturer's protocol. The cDNA fragments were enriched after 15 rounds of PCR amplification. The quality control of the library was assessed by size distribution of the cDNA libraries measured using 2100 Bioanalyzer with DNA1000 assay (Agilent Technologies) and a StepOnePlus real-time PCR system from ABI were used to quantify the sample library before sequencing. The cDNA library was sequenced on the Illumina HiSeq 1500 System, in a final flow cell paired with Rapid in a 200 pair strategy of 2-101 bp pairing strategy.
The in-silico analysis of RNA-Seq comprises several quality steps and transcriptomic quantification algorithms that are understood in the present invention as “pipeline”. (FIG. 19). The quality check was performed using FastQC3. Hisat214 was used to align readings against the horse's reference genome (Equus caballus) (annotation version 89). To map and quantify transcriptions, the feature Counts was used, resulting in a table of genetic IDs versus samples with raw reading counts. Then, differentially expressed genes (DEGs) were calculated using the EdgeR package. Genes with less than one count per million (CPM) were filtered out. The DEGs were calculated by crossing the sample values of a) 6 h after treatment (6 h)×control (0 h); b) 12 h after treatment (12 h)×control; and also, c) 12 h×6 h. DEGs are defined as an absolute value of log 2 fold change between two groups (LFC)>1 and false discovery rate (FDR)<0.05. […]

[1] = in vivo administration, RNA-Seq
[2] = treated equine melanoma tumors, RNA-Seq

B1: Amblyomin-X: recombinant Kunitz type protein identified in a cDNA library of Amblyomma sculptum tick salivary glands (protein)
chain: MRQLAVLALVIFTGMCVESQSANSKAVCNLPKLAGDETCSNKTEIRWYYNGTACEAFIFKGCGGNDNNFDRVDDCQRLCEEQTHFHFESPKLICFKVQDYWILNDIMKKNLTGISLKSEEEDADSGEID
modifications: Amblyomin-X
notes: recombinant Kunitz type protein identified in a cDNA library of Amblyomma sculptum tick salivary glands
With B1 the “logFC6, gene IFIH1” value (RNA-seq, 6 h after treatment) was 0.851, the “logFC6, gene IFIT1” value (RNA-seq, 6 h after treatment) was 2.574 and the “logFC6, gene IL1B” value (RNA-seq, 6 h after treatment) was 4.309. For the same molecule, the “logFC6, gene IL1RN” value (RNA-seq, 6 h after treatment) was 2.823, the “logFC6, gene IL13RA1” value (RNA-seq, 6 h after treatment) was 1.408 and the “logFC6, gene IRF9” value (RNA-seq, 6 h after treatment) was 1.136. The “logFC6, gene ITGA1” value (RNA-seq, 6 h after treatment) was 1.348, the “logFC6, gene MYH1” value (RNA-seq, 6 h after treatment) was −8.4 and the “logFC6, gene MYH3” value (RNA-seq, 6 h after treatment) was −3.643. The “logFC6, gene MYL2” value (RNA-seq, 6 h after treatment) was −8.697, the “logFC6, gene MYLPF” value (RNA-seq, 6 h after treatment) was −5.872 and the “logFC6, gene NTNG1” value (RNA-seq, 6 h after treatment) was −1.959. For the same molecule, the “logFC6, gene OAS2” value (RNA-seq, 6 h after treatment) was 1.463, the “logFC6, gene PARP9” value (RNA-seq, 6 h after treatment) was 1.816 and the “logFC6, gene PER1” value (RNA-seq, 6 h after treatment) was −1.474. The “logFC6, gene PIK3R6” value (RNA-seq, 6 h after treatment) was −1.277, the “logFC6, gene RUNX1” value (RNA-seq, 6 h after treatment) was 1.723 and the “logFC6, gene SAA1” value (RNA-seq, 6 h after treatment) was 3.456. For the same molecule, the “logFC6, gene SELP” value (RNA-seq, 6 h after treatment) was 2.596, the “logFC6, gene SLPI” value (RNA-seq, 6 h after treatment) was 3.009 and the “logFC6, gene SOCS3” value (RNA-seq, 6 h after treatment) was 2.979. The “logFC6, gene STAT1” value (RNA-seq, 6 h after treatment) was 1.085, the “logFC6, gene TAT” value (RNA-seq, 6 h after treatment) was 5.292 and the “logFC6, gene TEAD4” value (RNA-seq, 6 h after treatment) was 1.685. The “logFC6, gene THBS1” value (RNA-seq, 6 h after treatment) was 1.819, the “logFC6, gene TLR2” value (RNA-seq, 6 h after treatment) was 1.5586 and the “logFC6, gene TREM1” value (RNA-seq, 6 h after treatment) was 5.551. The “logFC12, gene ACTN1” value (RNA-seq, 12 h after treatment) was 1.006, the “logFC12, gene BCL3” value (RNA-seq, 12 h after treatment) was 1.709 and the “logFC12, gene BIRC3” value (RNA-seq, 12 h after treatment) was 0.9146. The “logFC12, gene CAD” value (RNA-seq, 12 h after treatment) was 1.028, the “logFC12, gene CCL2” value (RNA-seq, 12 h after treatment) was 3.517 and the “logFC12, gene CDO1” value (RNA-seq, 12 h after treatment) was −2.408. The “logFC12, gene CTSL” value (RNA-seq, 12 h after treatment) was 1.385, the “logFC12, gene CXCL6” value (RNA-seq, 12 h after treatment) was 3.417 and the “logFC12, gene DDX58” value (RNA-seq, 12 h after treatment) was 1.76. For the same molecule, the “logFC12, gene F12” value (RNA-seq, 12 h after treatment) was 3.104, the “logFC12, gene FOSL1” value (RNA-seq, 12 h after treatment) was 4.028 and the “logFC12, gene FSCN1” value (RNA-seq, 12 h after treatment) was 1.831. For the same molecule, the “logFC12, gene HMOX1” value (RNA-seq, 12 h after treatment) was 1.117, the “logFC12, gene HSPA6” value (RNA-seq, 12 h after treatment) was 4.55 and the “logFC12, gene IFI35” value (RNA-seq, 12 h after treatment) was 1.639. For the same molecule, the “logFC12, gene IFIH1” value (RNA-seq, 12 h after treatment) was 1.823, the “logFC12, gene IFIT1” value (RNA-seq, 12 h after treatment) was 2.655 and the “logFC12, gene IL1B” value (RNA-seq, 12 h after treatment) was 3.152. The “logFC12, gene IL1RN” value (RNA-seq, 12 h after treatment) was 2.805, the “logFC12, gene IL13RA1” value (RNA-seq, 12 h after treatment) was 1.28 and the “logFC12, gene IRF9” value (RNA-seq, 12 h after treatment) was 1.462. For the same molecule, the “logFC12, gene ITGA1” value (RNA-seq, 12 h after treatment) was 1.094, the “logFC12, gene MYH1” value (RNA-seq, 12 h after treatment) was −8.31 and the “logFC12, gene MYH3” value (RNA-seq, 12 h after treatment) was 3.004. For the same molecule, the “logFC12, gene MYL2” value (RNA-seq, 12 h after treatment) was −7.917, the “logFC12, gene MYLPF” value (RNA-seq, 12 h after treatment) was −5.428 and the “logFC12, gene NTNG1” value (RNA-seq, 12 h after treatment) was −2.943. For the same molecule, the “logFC12, gene OAS2” value (RNA-seq, 12 h after treatment) was 2.491, the “logFC12, gene PARP9” value (RNA-seq, 12 h after treatment) was 2.109 and the “logFC12, gene PER1” value (RNA-seq, 12 h after treatment) was −1.139. The “logFC12, gene PIK3R6” value (RNA-seq, 12 h after treatment) was −1.356, the “logFC12, gene RUNX1” value (RNA-seq, 12 h after treatment) was 1.443 and the “logFC12, gene SAA1” value (RNA-seq, 12 h after treatment) was 3.902. The “logFC12, gene SELP” value (RNA-seq, 12 h after treatment) was 2.395, the “logFC12, gene SLPI” value (RNA-seq, 12 h after treatment) was 3.051 and the “logFC12, gene SOCS3” value (RNA-seq, 12 h after treatment) was 2.423. For the same molecule, the “logFC12, gene STAT1” value (RNA-seq, 12 h after treatment) was 1.267, the “logFC12, gene TAT” value (RNA-seq, 12 h after treatment) was 5.521 and the “logFC12, gene TEAD4” value (RNA-seq, 12 h after treatment) was 1.949. For the same molecule, the “logFC12, gene THBS1” value (RNA-seq, 12 h after treatment) was 0.8749, the “logFC12, gene TLR2” value (RNA-seq, 12 h after treatment) was 1.839 and the “logFC12, gene TREM1” value (RNA-seq, 12 h after treatment) was 5.559. The “LFC SELE (6 h×0 h)” value (e-selectin (SELE) gene, log2 fold change, 6 h after treatment vs control 0 h, RNA-Seq) was 2.33, the “LFC SELE (12 h×0 h)” value (e-selectin (SELE) gene, log2 fold change, 12 h after treatment vs control 0 h, RNA-Seq) was 1.78 and the “logFC6 BATF3” value (gene BATF3, RNA-seq, 6 hours after treatment) was 3.137. For the same molecule, the “logFC12 BATF3” value (gene BATF3, RNA-seq, 12 hours after treatment) was 2.91, the “logFC6 CAV3” value (gene CAV3, RNA-seq, 6 hours after treatment) was −3.0363 and the “logFC12 CAV3” value (gene CAV3, RNA-seq, 12 hours after treatment) was −6.6813. The “logFC6 CCR7” value (gene CCR7, RNA-seq, 6 hours after treatment) was 2.652, the “logFC12 CCR7” value (gene CCR7, RNA-seq, 12 hours after treatment) was 2.359 and the “logFC6 CDH15” value (gene CDH15, RNA-seq, 6 hours after treatment) was −2.616. The “logFC12 CDH15” value (gene CDH15, RNA-seq, 12 hours after treatment) was −1.702, the “logFC6 EIF2AK2” value (gene EIF2AK2, RNA-seq, 6 hours after treatment) was 2.4 and the “logFC12 EIF2AK2” value (gene EIF2AK2, RNA-seq, 12 hours after treatment) was 2.959. For the same molecule, the “logFC6 ETV6” value (gene ETV6, RNA-seq, 6 hours after treatment) was 1.795, the “logFC12 ETV6” value (gene ETV6, RNA-seq, 12 hours after treatment) was 1.871 and the “logFC6 IL7R” value (gene IL7R, RNA-seq, 6 hours after treatment) was 2.532. For the same molecule, the “logFC12 IL7R” value (gene IL7R, RNA-seq, 12 hours after treatment) was 2.227, the “logFC6 IL18RAP” value (gene IL18RAP, RNA-seq, 6 hours after treatment) was 2.817 and the “logFC12 IL18RAP” value (gene IL18RAP, RNA-seq, 12 hours after treatment) was 2.593. The “logFC6 MYLK2” value (gene MYLK2, RNA-seq, 6 hours after treatment) was −5.152, the “logFC12 MYLK2” value (gene MYLK2, RNA-seq, 12 hours after treatment) was −5.672 and the “logFC6 NECTIN3” value (gene NECTIN3, RNA-seq, 6 hours after treatment) was 1.287. For the same molecule, the “logFC12 NECTIN3” value (gene NECTIN3, RNA-seq, 12 hours after treatment) was 1.113, the “logFC6 NLRC4” value (gene NLRC4, RNA-seq, 6 hours after treatment) was 5.503 and the “logFC12 NLRC4” value (gene NLRC4, RNA-seq, 12 hours after treatment) was 5.687. The “logFC6 NLRP12” value (gene NLRP12, RNA-seq, 6 hours after treatment) was 3.4, the “logFC12 NLRP12” value (gene NLRP12, RNA-seq, 12 hours after treatment) was 2.297 and the “logFC6 OAS3” value (gene OAS3, RNA-seq, 6 hours after treatment) was 1.716. The “logFC12 OAS3” value (gene OAS3, RNA-seq, 12 hours after treatment) was 2.112, the “logFC6 PRKCQ” value (gene PRKCQ, RNA-seq, 6 hours after treatment) was −1.531 and the “logFC12 PRKCQ” value (gene PRKCQ, RNA-seq, 12 hours after treatment) was −3.021. For the same molecule, the “DEG modulation of ACTA1 and ACTN2” value [1] was “high negative regulation”, the “DEG modulation of ACTN1 and ACTR3” value [1] was “positive regulation” and the “DEG modulation of TUBB and TUBB6 (Tubulin family)” value [1] was “positive regulation”. For the same molecule, the “expression of Interferons (type 1 interferon, IFN alpha and IFN beta)” value [2] was “does not lead to the detectable expression” and the “expression of the NOXA gene (PMAIP1)” value [2] was “did not induce the detectable expression”.
